Values of other authors in publication PMC6611644.
Several values for one entry are separate records, joined by “and”; a condition that tells them apart may be missing. Equal values may be shown once.

Target: GPIbα (Homo sapiens) (UniProt P07359)
Assay: SPR

UniProt P07359, sequence (P07359 17-306): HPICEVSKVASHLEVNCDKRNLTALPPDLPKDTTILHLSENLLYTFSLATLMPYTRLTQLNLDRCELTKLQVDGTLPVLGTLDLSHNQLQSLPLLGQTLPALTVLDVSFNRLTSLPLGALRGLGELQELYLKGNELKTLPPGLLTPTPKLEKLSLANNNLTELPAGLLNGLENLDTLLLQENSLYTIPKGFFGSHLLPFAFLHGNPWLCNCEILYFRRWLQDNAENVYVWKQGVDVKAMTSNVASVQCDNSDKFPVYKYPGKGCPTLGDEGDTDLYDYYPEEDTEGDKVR

| Substance | Kd |
| --- | --- |
| GspB BR (from UniProt Q939N5) | 23.8 nM |
| Hsa BR (from UniProt A8AWU7) | 5.05 nM and 30.5 nM |
